Experimental data taken from the RNAGym collection of RNA variant scans (doi:10.7554/elife.80360).

B1: HDV Ribozyme (parent)
chain: GGCCGGCAUGGUCCCAGCCUCCUCGCUGGCGCCGGCUGGGCAACAUUCCGAGGGGACCGUCCCCUCGGUAAUGGCGAAUGGGACCCA

Variants of: B1
Assay: self-cleavage, relative activity (ratio to wild type); higher = more cleavage; co-transcriptional

For GGCCGGCAUGGUCCAAGCCUCCUCGCUGGCGCCGGCUGGGCAACAUUCCGAGGGGACCGUCCCCUCGGUAAUGGCGAAUGUGACCCA [C15A G81U], which self-cleavage is on record?
The self-cleavage was 0.232.

Which self-cleavage does the source give for GGCCGGCAUGGUCCCAGCCUCCUCGCUGGCGCCGGGUGGGCAACAUUCUGAGGGGACCGUCCCCUCGGUAAUGGCGAAUGGGACCCA [C36G C49U] here?
Its self-cleavage is 0.0811.

With GGCCGGCAUGGUCCCAGCCUCCUCGCUGGCGCCGGCUGGGCAAAAUUCCGAGGGGACCGUACCCUCGGUAAUGGCGAAUGGGACCCA [C44A C61A] as the variant, how does the self-cleavage read?
Its self-cleavage is 0.618.

For GGCCGGCAUGGUCCCAGCCUCCUCGCUGGCGCCGGCUGGGCAACAUGCCGAGGGGACCGUCCCCUCGGUAACGGCGAAUGGGACCCA [U47G U72C], which self-cleavage is on record?
The self-cleavage was 0.554.

Which self-cleavage does the source give for GGCCGGCAUGGUCCCAGCCUCCUCGUUGGCGCCGGCUGGGCAACAUUCCGAGGGGACCGUCCCCUCGGUAAUGGCGAAUCGGACCCA [C26U G80C] here?
Its self-cleavage is 0.554.

Which self-cleavage does the source give for GGCCGGCAUGGUCCCAGCCUCUUCGCUGGCGCCGGCUGGGCAACAUUCCGAGGGGACCGUCCCCUCGGUAAUGGCGAAUGGGACUCA [C22U C85U] here?
Its self-cleavage is 0.577.

Which self-cleavage does the source give for GGGCGGCAUGGUCGCAGCCUCCUCGCUGGCGCCGGCUGGGCAACAUUCCGAGGGGACCGUCCCCUCGGUAAUGGCGAAUGGGACCCA [C3G C14G] here?
The self-cleavage was 0.268.

For GGCGGGCAUGGUACCAGCCUCCUCGCUGGCGCCGGCUGGGCAACAUUCCGAGGGGACCGUCCCCUCGGUAAUGGCGAAUGGGACCCA [C4G C13A], which self-cleavage is on record?
The self-cleavage was 0.0277.

For GGCCGGCAUGGUCCCAGCCUCCUCUCCGGCGCCGGCUGGGCAACAUUCCGAGGGGACCGUCCCCUCGGUAAUGGCGAAUGGGACCCA [G25U U27C], which self-cleavage is on record?
The self-cleavage was 0.107.

For GGCCGGCAUGGUCCCAGCCUCCUCGCUGGAGCCGGCUGGGCAACAUUCUGAGGGGACCGUCCCCUCGGUAAUGGCGAAUGGGACCCA [C30A C49U], which self-cleavage is on record?
The self-cleavage was 0.615.

With GGCCGGCAUGAUCCCAGCCUCCUCGCUGGCGCCGGCUGGGCAACAUGCCGAGGGGACCGUCCCCUCGGUAAUGGCGAAUGGGACCCA [G11A U47G] as the variant, how does the self-cleavage read?
The self-cleavage was 0.58.

With GGCCGGCAUGGUCCCAGCCUCCUCGCUGGCGCCGGCUGGGCAACAUUCCGAGGGGACCGUCCCCUCAGUAAUGGCGAAUCGGACCCA [G67A G80C] as the variant, how does the self-cleavage read?
Its self-cleavage is 0.172.

Which self-cleavage does the source give for GUCCGGCAUGGUCCCAGCCUCCUCGCUGGCGCCGGCUGGGCAACAUCCCGAGGGGACCGUCCCCUCGGUAAUGGCGAAUGGGACCCA [G2U U47C] here?
The self-cleavage was 0.

With GGCCGGCAUGGUCCCAGCCUCCUCGCUGGCGCCGGGUGGGCAACAUUCCGAGGGGGCCGUCCCCUCGGUAAUGGCGAAUGGGACCCA [C36G A56G] as the variant, how does the self-cleavage read?
Its self-cleavage is 0.0594.

With GGCCGGCACGGUCCCAGCCUCCUCGCUGGCGCCGGGUGGGCAACAUUCCGAGGGGACCGUCCCCUCGGUAAUGGCGAAUGGGACCCA [U9C C36G] as the variant, how does the self-cleavage read?
Its self-cleavage is 0.

With GGCCGGCAUGGUCCCAGCCACCUGGCUGGCGCCGGCUGGGCAACAUUCCGAGGGGACCGUCCCCUCGGUAAUGGCGAAUGGGACCCA [U20A C24G] as the variant, how does the self-cleavage read?
Its self-cleavage is 0.0449.

For GGCCGGCAUGGUCCCAGCCUCCUCGCUGGCGCCGGCUGGGCAACAUUCCGAGGGCACCUUCCCCUCGGUAAUGGCGAAUGGGACCCA [G55C G59U], which self-cleavage is on record?
The self-cleavage was 0.87.

For GGCCGGCAUGGUCCCAGGCUCCUUGCUGGCGCCGGCUGGGCAACAUUCCGAGGGGACCGUCCCCUCGGUAAUGGCGAAUGGGACCCA [C18G C24U], which self-cleavage is on record?
Its self-cleavage is 0.107.

Which self-cleavage does the source give for GGCCGGCAUGGUCACAGCCUCCUCGCUGGCGCCGGCUGGGCAGCAUUCCGAGGGGACCGUCCCCUCGGUAAUGGCGAAUGGGACCCA [C14A A43G] here?
The self-cleavage was 0.

With GGCCGGCAUGGUCCCAGCCUCCUCGCUGGCGCCGGCUGGGCAACAUUCCGAGGGGACCUUCCCCUCGGUAAUGGUGAAUGGGACCCA [G59U C75U] as the variant, how does the self-cleavage read?
Its self-cleavage is 0.145.

With GGCCGGCAUGGUCCCAGCCUCCUCGCUGGCGCCGGCUGGGCAACAUUCCGAGGGGAGCGUCCCCUCGGUAAUGGCGAAUGGGACCCG [C57G A87G] as the variant, how does the self-cleavage read?
Its self-cleavage is 0.86.

With GGCCGGCAUGGUCCCAGCCUCCUCGCUGGCGCCGGCUGGGCAACAUUCCGAGGGGAUCGUCCCCUCGGUAAUGGCGAGUGGGACCCA [C57U A78G] as the variant, how does the self-cleavage read?
Its self-cleavage is 0.639.

For GGCCGGCAUGGUCCCAGCCUCCUCGCUGGCGUCGGCUGGGCAACAUUCCGAGGGGACCGCCCCCUCGGUAAUGGCGAAUGGGACCCA [C32U U60C], which self-cleavage is on record?
Its self-cleavage is 0.7.

Which self-cleavage does the source give for GGCCGGCAUGGUCCCAGCCUCCUCGCUGGCGCCGGCUGGGCAACAUUCCGAGGGGACCGUCCCCUCGGUAAAGGCGAAUGGCACCCA [U72A G82C] here?
Its self-cleavage is 0.208.

For GGCCGGCAUGGUCCCAGCCUCCUCGCUGGCGCGGGCUGGGCAACAUUCCGAGGGGACCGUCCCCUCGGUAAUGGAGAAUGGGACCCA [C33G C75A], which self-cleavage is on record?
Its self-cleavage is 0.0791.

Which self-cleavage does the source give for GGCCGGCAUGGUCCCAGCCUCCUAGCUGGCUCCGGCUGGGCAACAUUCCGAGGGGACCGUCCCCUCGGUAAUGGCGAAUGGGACCCA [C24A G31U] here?
The self-cleavage was 0.0519.

For GGCCGGCAUGGUCCCAGCCUCCUCGCUGGCGCCGGCUGGGCAACAGUCCGAGGUGACCGUCCCCUCGGUAAUGGCGAAUGGGACCCA [U46G G54U], which self-cleavage is on record?
Its self-cleavage is 0.443.

With GGCCGGCAUGGUCCCAGCCUCGUCGCUGGCGCCGGCUGGGCAACAUUCCUAGGGGACCGUCCCCUCGGUAAUGGCGAAUGGGACCCA [C22G G50U] as the variant, how does the self-cleavage read?
Its self-cleavage is 0.0297.

Which self-cleavage does the source give for GGCCGGCAUGGUCCCAGCCUCCUCGCUGGCGCCGCCUGGGCAACAUUCCGAGGGGACCGUCCCCUCGGUAAUGGCGAAUGGGACCCC [G35C A87C] here?
The self-cleavage was 0.0866.

For GACCGGCAUGGUCCCAGCCUCCUCGCUGGCGCCGGCUAGGCAACAUUCCGAGGGGACCGUCCCCUCGGUAAUGGCGAAUGGGACCCA [G2A G38A], which self-cleavage is on record?
Its self-cleavage is 0.0314.

Which self-cleavage does the source give for GGCCGGCAUGGUCCCAGACUCCUCGCUGGCGCCGGCUGGGCAACAUUCCGAGGGGACCGUCCCCUCGGUAAUGGCUAAUGGGACCCA [C18A G76U] here?
The self-cleavage was 0.228.

Which self-cleavage does the source give for GGCCGGCAUGGUCCCAGCCGCCUCGCUGGCGCCGGCUGGGCAACAUUCCGAGGGGGCCGUCCCCUCGGUAAUGGCGAAUGGGACCCA [U20G A56G] here?
Its self-cleavage is 0.151.
